Values quoted from earlier work as cited in publication PMC12462375.

Tests used:
[1] = biological target: CD47 (Homo sapiens) (UniProt Q08722)
[2] = biological target: basigin (Homo sapiens) (UniProt P35613)
UniProt P35613, sequence (P35613 22-325): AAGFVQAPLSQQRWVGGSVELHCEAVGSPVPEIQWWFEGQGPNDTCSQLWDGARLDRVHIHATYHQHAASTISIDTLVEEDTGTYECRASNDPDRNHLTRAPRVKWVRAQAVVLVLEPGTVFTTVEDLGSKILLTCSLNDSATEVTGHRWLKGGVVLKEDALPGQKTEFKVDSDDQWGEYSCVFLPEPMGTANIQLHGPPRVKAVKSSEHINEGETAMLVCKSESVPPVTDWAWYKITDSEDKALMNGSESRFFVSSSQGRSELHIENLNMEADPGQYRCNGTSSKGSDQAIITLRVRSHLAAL

Kd [1] | Substance | Kd [2]
740 nM | SIRPα (PDB 4CMM) (from UniProt P78324) | –
– | PfRH5 (from UniProt Q8IFM5) | 1100 nM
